Results on one protein are retold here after PMC3060920, “Structural Analysis of a Repetitive Protein Sequence Motif in Strepsirrhine Primate Amelogenin” (PLoS ONE, 2011).

The data set deals with the molecule itself. Kind of data set: dynamic light scattering; self-assembly into nanospheres; 0.4 mg/mL, pH 8, 25 mM Tris buffer, 22°C; Rayleigh sphere model, sphere-equivalent hydrodynamic radii.

B1: rp(H)M180, recombinant His-tagged mouse amelogenin M180 (natural protein, UniProt P63277-1 17-196, looked up)
chain: MPLPPHPGSPGYINLSYEVLTPLKWYQSMIRQPYPSYGYEPMGGWLHHQIIPVLSQQHPPSHTLQPHHHLPVVPAQQPVAPQQPMMPVPGHHSMTPTQHHQPNIPPSAQQPFQQPFQPQAIPPQSHQPMQPQSPLHPMQPLAPQPPLPPLFSMQPLSPILPELPLEAWPATDKTKREEVD
notes: Assembles into nanospheres at pH 8; also called wild type mouse amelogenin; mAmelx; source: E. coli (pQE30), purified (Ni-NTA); not shown: poly-histidine, N-terminal, kept
Take B1: the binding result is reported as “binds”.
